B1: tanezumab (antibody, V domains shown)
VH: QVQLQESGPGLVKPSETLSLTCTVSGFSLIGYDLNWIRQPPGKGLEWIGIIWGDGTTDYNSAVKSRVTISKDTSKNQFSLKLSSVTAADTAVYYCARGGYWYATSYYFDYWGQGTLVTVSS
VL: DIQMTQSPSSLSASVGDRVTITCRASQSISNNLNWYQQKPGKAPKLLIYYTSRFHSGVPSRFSGSGSGTDFTFTISSLQPEDIATYYCQQEHTLPYTFGQGTKLEIKR
B2: 1-15(N52D-A)-Fab′ conjugated to 5 kDa PEG (Fab, V domains shown)
VH: QVQLQQWGAGLLKPSETLSLTCAVYGGSFSGYYWSWVRQPPGKGLEWIGEIDHSGSTNNNPSLKSRVTISVGTSKNQFSLKLSSVTAADTAVYYCSRDGGPESGMGAFDIWGQGTMVTVSS
VL: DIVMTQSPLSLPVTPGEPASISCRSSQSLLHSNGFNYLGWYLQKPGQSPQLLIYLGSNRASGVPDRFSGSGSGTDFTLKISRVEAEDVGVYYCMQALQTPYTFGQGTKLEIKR
modifications: 5 kDa PEG conjugated by a procedure similar to Example 13 (hinge region Cys)
B3: 1-15(N52D-A)-Fab′ conjugated to 10 kDa PEG (Fab, V domains shown)
VH: B2 VH
VL: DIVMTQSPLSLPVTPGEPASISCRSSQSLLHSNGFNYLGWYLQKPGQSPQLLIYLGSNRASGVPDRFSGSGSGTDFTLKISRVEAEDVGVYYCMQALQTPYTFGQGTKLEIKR
modifications: 10 kDa PEG conjugated by a procedure similar to Example 13 (hinge region Cys)
B4: PEGylated 1-15(N52D)-Fab′ (Fab, V domains shown)
VH: B2 VH
VL: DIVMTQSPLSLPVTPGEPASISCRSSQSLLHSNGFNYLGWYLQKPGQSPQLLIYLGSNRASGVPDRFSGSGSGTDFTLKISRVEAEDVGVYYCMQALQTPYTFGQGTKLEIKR
modifications: 40 kDa PEG (maleimide, SUNBRIGHT GL2-400MA) on Cys at position 230 of SEQ ID NO:10 (C226 based on EU index)

Columns and labels:
[1] = target: human βNGF (R&D Systems, Inc.) (human, UniProt P01138 122-241); assay: cell-based or functional assay
[2] = target: mouse βNGF (R&D Systems, Inc.) (mouse, UniProt P01139 122-241); assay: cell-based or functional assay
mouse βNGF (R&D Systems, Inc.), sequence (P01139 122-241 limits assumed): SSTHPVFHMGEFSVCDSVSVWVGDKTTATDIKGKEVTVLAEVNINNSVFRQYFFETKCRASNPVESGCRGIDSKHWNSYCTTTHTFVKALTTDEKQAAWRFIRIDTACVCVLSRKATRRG

human βNGF (R&D Systems, Inc.), sequence (P01138 122-241 limits assumed): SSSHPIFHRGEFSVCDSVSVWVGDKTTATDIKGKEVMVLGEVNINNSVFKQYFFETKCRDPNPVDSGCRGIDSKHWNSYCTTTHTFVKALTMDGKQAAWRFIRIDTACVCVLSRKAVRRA

| Binder | IC50, method of Example 6 (Ca2+, HEK293-human trkA) [1] [µg/mL] | IC50, method of Example 6 (Ca2+, HEK293-human trkA) [2] [µg/mL] | IC50, method of Example 6 at a final NGF concentration of 50 ng/ml [1] [µg/mL] |
| --- | --- | --- | --- |
| B1 | 0.17 | 0.23 |  |
| B2 |  |  | 0.03 |
| B3 |  |  | 0.028 |
| B4 |  | 0.069 |  |

Source: patent US20140155582A1 (Astellas, published 2014)
